Where a chain is given by its changes, count along the chain named.
B1: scFv clone No. 4, displayed on phage (scFv)
scFv: AQAAELDIVLTQSPAIMSASPGEKVTISCSASSSVGYMYWYQQKPGSSPKPWIYRPSNLASGVPARFSGSGSGTSYSLTISSMEAEDAATYYCQQYHSYPPTFGAGTKLELKSSGGGGSGGGGGGSSRSSLEVKLVESGPELKKPGETVKISCKASGYTFTDYSMHWVNQAPGKGLKWMGWINTETGEPSYADDFKGRFAFSLETSASTAYLQINNLKNEDTATYFCATDYGDYFDYWGQGTTLTVSSAKTTPPSVTSGQ
B2: scFv clone No. 5, displayed on phage (scFv)
scFv: AQAAELDIVLTQSPAIMSASPGEKVTISCSASSSVSYMYWYQQKPGSSPKPWIYRTSNLASGVPARFSGSGSGTSYSLTISSMEAEDAATYYCQQYHSYPPTFGAGTKLELKSSGGGGSGGGGGGSSRSSLEVKLVESGPELKKPGETVKISCKASGYTFTDYSMHWVNQAPGKGLKWMGWINTETGEPSYADDFKGRFAFSLETSASTAYLQINNLKNEDTATYFCATDYGDYFDYWGQGTTLTVSSAKTTPPSVTSGQAGQ
B3: scFv clone No. 6, displayed on phage (scFv)
scFv: B2 scFv with T56P, L131P, K134M
B4: scFv clone No. 7, displayed on phage (scFv)
scFv: AQAAELDIVLTQSPAIMSASPGEKVTISCSASSSVSYMYWYQQKPGQPPRLLIYLVSNLESGVPARFSGSGSGTDFTLNIHPVEEEDAATYYCQQYHSYPPTFGAGTKLEIKSSGGGGSGGGGGGSSRSSLEVKLVESGPELKKPGETVKISCKASGYTFTDYSMHWVNQAPGKGLKWMGWINTETGEPSYADDFKGRFAFSLETSASTAYLQINNLKNEDTATYFCATDYGDYFDYWGQGTTLTVSSAKTTPPSVTSGQAGQ
B5: scFv clone No. 8, displayed on phage (scFv)
scFv: B2 scFv with T56P, K134H
B6: scFv clone No. 10, displayed on phage (scFv)
scFv: B2 scFv with T11S, S48P, Y231C
B7: scFv clone No. 11, displayed on phage (scFv)
scFv: B2 scFv with T11S
B8: scFv clone No. 22, displayed on phage (scFv)
scFv: B2 scFv with T56P, G116D, P253A
B9: scFv clone No. 23, displayed on phage (scFv)
scFv: B2 scFv with T56P, K134Q, P253A
B10: monoclonal antibody produced by Hybridoma Clone 7 (antibody, V domains shown)
VH: EVKLVESGPELKKPGETVKISCKASGYTFTDYSMHWVNQAPGKGLKWMGWINTETGEPSYADDFKGRFAFSLETSASTAYLQINNLKNEDTATYFCATDYGDYFDYWGQGTTLTVSS
VL: DIVLSQSPAIMSASPGEKVTISCSASSSVSYMYWYQQKPGSSPKPWIYRTSNLASGVPARFSGSGSGTSYSLTISSMEAEDAATYYCQQYHSYPPTFGAGTKLELK

Biological target: human prominin-1 expressed in E. coli as a 6*HIS fusion protein (human) (UniProt O43490)
Assay: phage ELISA on plate-coated human prominin-1, HRP-conjugated anti-M13

Binder | A450 [A450]
B1 | 1
B2 | 1.3
B3 | 1.3
B4 | 0.9
B5 | 1
B6 | 1.2
B7 | 1.4
B8 | 1.2
B9 | 1.1

Biological target: human prominin-1 expressed in E. coli as a 6*HIS fusion protein (human) (UniProt O43490)
Assay: ELISA on plate-coated human prominin-1, hybridoma secreted antibody diluted at 1:2000

Binder | A450 [A450]
B10 | 1.9

From US20130224202A1
